From patent US20240383974A1 (BETTA PHARMACEUTICALS, published 2024)
Read-outs that look alike come from different tables or passages of the source.

Legend:
[1] = target: T1, GARP (CHO-K1-GARP cell line that overexpresses GARP) (UniProt Q14392 20-662, limits assumed); assay: FACS on CHO-K1-GARP cells
T1 construct: whole, on cells; also called GARP protein
T1 sequence (looked up): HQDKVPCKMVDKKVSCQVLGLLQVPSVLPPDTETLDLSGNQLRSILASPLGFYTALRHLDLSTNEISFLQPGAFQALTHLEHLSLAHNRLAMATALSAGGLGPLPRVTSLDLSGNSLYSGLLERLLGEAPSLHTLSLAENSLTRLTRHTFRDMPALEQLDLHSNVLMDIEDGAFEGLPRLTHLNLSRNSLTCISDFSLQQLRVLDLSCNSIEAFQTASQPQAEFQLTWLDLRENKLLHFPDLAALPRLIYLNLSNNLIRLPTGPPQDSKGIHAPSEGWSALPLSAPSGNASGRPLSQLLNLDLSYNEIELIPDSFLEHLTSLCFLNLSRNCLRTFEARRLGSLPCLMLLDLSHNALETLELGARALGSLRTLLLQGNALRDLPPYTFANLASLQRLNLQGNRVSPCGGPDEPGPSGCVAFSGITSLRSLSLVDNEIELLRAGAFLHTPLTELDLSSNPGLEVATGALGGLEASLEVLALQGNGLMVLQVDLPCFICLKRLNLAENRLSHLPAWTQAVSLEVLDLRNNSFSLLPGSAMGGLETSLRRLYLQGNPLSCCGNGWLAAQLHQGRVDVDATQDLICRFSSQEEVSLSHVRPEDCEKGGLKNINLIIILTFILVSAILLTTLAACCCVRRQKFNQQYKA

[2] = target: T2, GARP-TGF-β complex (293-GARP/TGFβ stably transfected cells) (UniProt Q14392 20-662; P01137 30-390); assay: FACS on 293-GARP/TGFβ cells
T2 construct: whole, on cells; Complex of GARP and (latent) TGF-β on the cell surface; also called 293-GARP/TGFβ cell; 293F-GAPR/TGFβ/αvβ6 cells

[3] = target: T2, GARP-TGF-β complex (293-GARP/TGFβ …); assay: cell-based or functional assay
human PD-L1 [4] = target: T3, human PD-L1 (human, UniProt Q9NZQ7 19-290); assay: cell-based or functional assay
human PD-L1 [5] = target: T3, human PD-L1; assay: FACS on MC38-hPD-L1 cells
[6] = target: T2, GARP-TGF-β complex (293-GARP/TGFβ …); assay: FACS on 293-GARP/TGFβ cells; remark: listed apart in the source
[7] = target: T1, GARP (CHO-K1-GARP cell line that …); assay: FACS on CHO-K1-GARP cells; remark: listed apart in the source
[8] = target: T2, GARP-TGF-β complex (293-GARP/TGFβ …); assay: FACS on 293-GARP/TGFβ cells; remark: listed apart in the source
[9] = target: T4, human transforming growth factor β1 (human, UniProt P01137 279-390); assay: ELISA, plate-coated hTGF-β1
T4 construct: Coated on the ELISA plate at 100 ng/well; also called hTGF-β1; TGF-β
T4 sequence (P01137 279-390 limits assumed): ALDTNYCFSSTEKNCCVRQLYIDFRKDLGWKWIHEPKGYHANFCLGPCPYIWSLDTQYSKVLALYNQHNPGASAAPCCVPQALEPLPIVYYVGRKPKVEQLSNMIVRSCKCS

T3 sequence (Q9NZQ7 19-290): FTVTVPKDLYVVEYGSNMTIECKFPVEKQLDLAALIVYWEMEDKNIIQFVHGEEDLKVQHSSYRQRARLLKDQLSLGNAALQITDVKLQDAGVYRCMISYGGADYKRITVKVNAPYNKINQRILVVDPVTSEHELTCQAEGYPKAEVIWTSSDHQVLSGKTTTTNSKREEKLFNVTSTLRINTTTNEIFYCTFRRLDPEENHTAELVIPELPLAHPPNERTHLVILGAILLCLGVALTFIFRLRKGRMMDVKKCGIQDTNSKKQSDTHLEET

B1: antibody m305 (antibody, V domains shown)
VH: EVQLQQSGPELVKPGASVKIPCKTSGYTFTDYNMNWVKQSHGKSLEWIGDINPYSGGTIYNQKFKGKAILTVDKSSSTAYMELRSLTSEDTGIYYCARVSKGSGDYWGQGTTLTVSS
VL: DIQMTQSPSSLSASLGERVSLTCRASQEISGYLSWLQQKPDGTIKRLIYAASTLDSGVPKRFSGSRSGSDYSLTISSLESEDFADYYCLQYASYPTCTFGGGTKLEIK
Question: With B1 as the binder, how does the EC50 [1] read?
Answer: < 1 nM

Question: And the EC50 [2]?
Answer: 4.1 nM

B2: b202-hu-H-D2hu (bispecific antibody, human IgG1, kappa)
heavy: not shown
light: DIVLTQSPDSLAVSLGERATINCRASESVTIIGTNLIQWFQQKPGQPPKLLIYHASNLETGVPDRFSGSGSRTDFTLTISSLQAEDVAVYYCLQSRQIPRTFGGGTKVEIKRTVAAPSVFIFPPSDEQLKSGTASVVCLLNNFYPREAKVQWKVDNALQSGNSQESVTEQDSKDSTYSLSSTLTLSKADYEKHKVYACEVTHQGLSSPVTKSFNRGEC
notes: also called b202-H-D2hu
Question: With B2 as the binder, how does the “IC50(nM), TGFβ reporter gene blocking (293F-GAPR/TGFβ/αvβ6 cells with 293-SBE-Luciferase cells)” value [3] read?
Answer: 4.9 nM

Question: What about the “IC50(nM), PD-1/PD-L1 NFAT-luciferase reporter (293T-hPD-L1 with Jurkat-PD1-CD3zeta-NFAT-Luc2 cells)” value (human PD-L1 [4]) of the same binder?
Answer: 7.8 nM

Question: And the EC50 (human PD-L1 [5])?
Answer: 0.34 nM

Question: What about the EC50 [6] of the same binder?
Answer: 5.6 nM

B3: antibody m305-hu (antibody, V domains shown)
VH: QVQLVQSGAEVKKPGASVKVSCKTSGYTFTDYNMNWVKQAPGQGLEWIGDINPYSGGTIYNQKFKGRATLTTDTSTSTAYMELRSLRSDDTAVYYCARVSKGSGDYWGQGTLVTVSS
VL: DIQMTQSPSSLSASVGDRVTITCRASQEISGYLSWLQQKPGGAPKRLIYAASTLDSGVPSRFSGSRSGTDYTLTISSLQPEDFATYYCLQYASYPTCTFGGGTKVEIK
notes: Humanized m305
Question: Which EC50 [7] does the source give for B3 here?
Answer: 0.45 nM

Question: What about the EC50 [8] of the same binder?
Answer: 2.1 nM

B4: antibody m212 (antibody, V domains shown)
VH: QVQLQQPGPELVKPGASVKLTCKASGYIFTSYWMHWVKRGPGRGLEWIGRIAPNSGGAHYHEKFKTKVTLTVDKPSSTAYMEFSSLTSEDSAVYYCARGNYGMDYWGQGTAVTVSS
VL: DIQMTQTTSSLSASLGDRVTISCRASQDISNYLNWYQQKPDGTVELLIYYTSTLHSGVPSRFSGSGSGTDYSLTISNLEQEDIATYFCQQVNTLPFTFGSGTKLEII
notes: Hybridoma-derived, expressed in mammalian cells; hIgG1 and hIgG4 as controls
Question: With B4 as the binder, how does the EC50 [1] read?
Answer: 0.46 nM

Question: And the EC50 [2]?
Answer: < 2 nM

B5: b202-L-D2hu (bispecific antibody, human IgG1, kappa)
heavy: not shown
light: DIVLTQSPDSLAVSLGERATINCRASESVTIIGTNLIQWFQQKPGQPPKLLIYHASNLETGVPDRFSGSGSRTDFTLTISSLQAEDVAVYYCLQSRQIPRTFGGGTKVEIKRTVAAPSVFIFPPSDEQLKSGTASVVCLLNNFYPREAKVQWKVDNALQSGNSQESVTEQDSKDSTYSLSSTLTLSKADYEKHKVYACEVTHQGLSSPVTKSFNRGECGGGGSGGGGSGGGGSGGGGSEVQLVESGGGLVQPGGSLRLSCAASGRDFLTYGMGWFRQAPGKGLEFVASINWSGSMTYYADSVKGRFTISRDNAKNSVYLQMNSLRAEDTAVYICAARRGAVTYASSNEYEHWGQGTQVTVSS
notes: also called b202-hu-L-D2hu
Question: What does the source list for B5?
Answer: IC50(nM), TGFβ reporter gene blocking (293F-GAPR/TGFβ/αvβ6 cells with 293-SBE-Luciferase cells) [3]: 1.7 nM; IC50(nM), PD-1/PD-L1 NFAT-luciferase reporter (293T-hPD-L1 with Jurkat-PD1-CD3zeta-NFAT-Luc2 cells) (human PD-L1 [4]): 13 nM; EC50 (human PD-L1 [5]): 0.39 nM; EC50 [6]: 5.4 nM

B6: antibody m107 (antibody, V domains shown)
VH: QVHLQQSGAALARPGASVKMSCKASGYTFSAYTIHWVKQRPGQGLEWIGYINPSNDFAKYIQKFKDKATLTADKSSSTAYMQLNSLTSEDSAIYYCARVDYYGGSYRWYLDVWGAGTTVTVSS
VL: DIVLTQSPATLSVTPGDSVSLSCRASQSISNNLHWYQQKSHESPRLLIKYTSQSISGIPSRFSGSGSGTDFTLSINSVETEDFGMYFCQQSNSWPIFTFGSGTKLEIK
Question: Which EC50 [1] does the source give for B6 here?
Answer: > 2 nM

Question: What about the EC50 [2] of the same binder?
Answer: 3.2 nM

Question: What about the EC50 [9] of the same binder?
Answer: 0.021 nM

B7: antibody m212-hu (antibody, V domains shown)
VH: QVQLVQSGAEVKKPGSSVKVSCKASGYIFTSYWMHWVKQAPGQGLEWIGRIAPNSGGAHYHEKFKTKVTITADKSTSTAYMEFSSLRSEDTAVYYCARGNYGMDYWGQGTAVTVSS
VL: DIQMTQSPSSLSASVGDRVTITCRASQDISNYLNWYQQKPGGAPELLIYYTSTLHSGVPSRFSGSGSGTDYTLTISSLQPEDFATYFCQQVNTLPFTFGSGTKLEIK
notes: Humanized m212
Question: Which EC50 [7] does the source give for B7 here?
Answer: 1.4 nM

Question: Does B7 bind (human PD-L1 [5])?
Answer: no binding (tested: initial concentration 200 nM)

Question: What about the EC50 [8] of the same binder?
Answer: < 2 nM
